Measurements reported in US20250066490A1, “ANTI-CD70 ANTIBODIES, CONJUGATES THEREOF AND METHODS OF USING THE SAME” (ProfoundBio US Co., priority 2021, published 2025).
Like-named read-outs stand apart in the source and are kept apart here.

Legend:
[1] = target: T1, human CD70 extra-cellular domain (ECD) (Homo sapiens, UniProt P32970); test: Biolayer interferometry (BLI), human CD70; assay type: binding
T1 construct: human, rat, or mouse CD70 extra-cellular domain (ECD) linked to His tag; His tag; purchased ACRO systems
T1 sequence (P32970 39-193 limits assumed): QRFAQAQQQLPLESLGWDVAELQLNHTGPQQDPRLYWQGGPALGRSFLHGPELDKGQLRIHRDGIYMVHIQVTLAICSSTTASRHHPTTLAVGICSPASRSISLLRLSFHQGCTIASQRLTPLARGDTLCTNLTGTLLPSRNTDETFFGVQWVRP
Description: (§1) Recombinant proteins consisting of human, rat, or mouse CD70 extra-cellular domain (ECD) linked to His tag was purchased (from ACRO systems). 69A7 and 2E7 (20 nM) were immobilized on anti-human IgG Fc biosensor tips (ForteBio). Binding assays using one concentration (100 nM) of recombinant protein in solution were performed using Octet RED (ForteBio). Association time was set at 180s and dissociation time was set at 300s. Binding affinity was calculated using ForteBio Data Acquisition 6.3 software. Affinity was derived by fitting the kinetic data to a 1:1 Langmuir binding model utilizing global fitting algorithms. […] Binding assays for 2E7 using multiple dilutions (from 200 nM down to 3.13 nM) of species' recombinant CD70 ECD proteins in solution were also performed using the same method.

[2] = target: T2, mouse CD70 extra-cellular domain (ECD) (Mus musculus, UniProt O55237); test: Biolayer interferometry (BLI), mouse CD70; assay type: binding; conditions: for Response: *Response below range of quantification
T2 construct: human, rat, or mouse CD70 extra-cellular domain (ECD) linked to His tag; His tag; purchased ACRO systems
T2 sequence (O55237 45-195): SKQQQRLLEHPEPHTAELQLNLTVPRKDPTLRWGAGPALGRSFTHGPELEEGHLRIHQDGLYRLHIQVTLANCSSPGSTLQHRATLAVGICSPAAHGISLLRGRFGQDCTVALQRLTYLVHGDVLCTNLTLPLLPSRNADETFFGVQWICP
Description: as §1

[3] = target: T3, rat CD70 extra-cellular domain (ECD) (Rattus norvegicus, UniProt M0R613); test: Biolayer interferometry (BLI), rat CD70; assay type: binding; conditions: for Response: *Response below range of quantification
T3 construct: human, rat, or mouse CD70 extra-cellular domain (ECD) linked to His tag; His tag; purchased ACRO systems
T3 sequence (M0R613 1-194): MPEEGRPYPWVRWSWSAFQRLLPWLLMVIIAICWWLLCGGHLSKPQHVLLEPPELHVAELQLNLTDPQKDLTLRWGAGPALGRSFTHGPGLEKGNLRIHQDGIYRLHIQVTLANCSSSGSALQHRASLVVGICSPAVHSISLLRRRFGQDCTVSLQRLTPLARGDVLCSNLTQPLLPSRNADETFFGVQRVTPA
Description: as §1

[4] = Hydrophobic interaction chromatography (HIC); assay type: physicochemical; conditions: full IgG
Description: Antibodies were purified from cleared cell culture supernatants using Protein A chromatography (Protein A resin slurry, 4.5 mL, Bogen, Cat #18-0010-02). Briefly, supernatants were prepared for affinity chromatography and loaded onto the columns and allowed to flow completely through the resin. The columns were washed with binding buffer containing 0.15M NaCl and 0.2M PB, PH7.0. Antibody was eluted with elution buffer containing 0.15M NaCl, 0.1M Glycine and 0.2M PB, PH 3.0. Fractions were collected and neutralized by the addition of 1/10 volume of 1M Tris, PH9.0. The fractions were dialyzed for 2 hours against 1×PBS. Purified antibody was quantified by absorbance at A280. Samples from each step of the protein A chromatography were applied onto 12% SDS-PAGE gels for reduced and non-reduced electrophoresis. The hydrophobicity was assessed with hydrophobic interaction chromatography (HIC) on a TSK gel Butyl-NPR, 4.6×100 mm with Butyl-NPR (Tosoh corporation) using a Waters HPLC 2695 system.

Raji cells = test: Internalization time course, Raji; assay type: cell-based, human; conditions: up to 4 hr, FIG. 13
Description: Four cell lines ([…]), Caki-1, Raji, MCF-7) were utilized in the internalization assay. Target (CD70) copy numbers were determined via the QIFIKIT (DAKO, K0078). Briefly, cells were labeled with a primary mouse monoclonal antibody against CD70. Cells, Set-up beads, Calibration beads (from the kit) were then labeled in parallel with a fluorescein-conjugated anti-mouse secondary antibody. The fluorescence is correlated with the number of bound primary antibody molecules on the cells and on the beads. Samples were subsequently analyzed on the flow cytometer and copy number determined based on the calibration curve (Table 11). For internalization assay, 3×10^5 cells were incubated at 4° C. for 30 min with 10 µg/ml 2E7 in FACS buffer (1×PBS containing 0.1% BSA). Cells were washed at 4° C. to remove unbound material and kept on ice or shifted to 37° C. for different lengths of time. At progressive timepoints ([…], 0.5, 1, 2, 3, 4 hr) cells were stained with PE-conjugated anti-human Fc for 30 min at 4° C. and analyzed by flow cytometry. Internalization rate were calculated by subtracting the mean fluorescence intensity (MFI) of cell surface-bound antibody at 37° C. at each time point from the MFI of cell surface-bound antibody at 4° C. at time 0, then divided by the MFI of the cell surface-bound antibody at 4° C. at time 0.

[5] = Hu CD70 100 nM, one concentration
[6] = one concentration (100 nM), Table 9

Response ([1]; HU CD70 3.13 nM): 0.1732
Response ([1]; HU CD70 6.25 nM): 0.2136
Response ([1]; HU CD70 12.5 nM): 0.3519
Response ([1]; HU CD70 25 nM): 0.5319
Response ([1]; HU CD70 50 nM): 0.6227
Response ([1]; HU CD70 100 nM, dilution series): 0.7695
Response ([1]; HU CD70 200 nM): 0.825
ka ([1]; HU CD70, multiple dilutions 200-3.13 nM, global fit): 314300 M⁻¹ s⁻¹
Response [1, 5]: 0.5157
ka [1, 5]: 365000 M⁻¹ s⁻¹
Kd ([1]; human CD70, multiple dilutions (200 nM down to 3.13 nM), read-out: KD): 0.81 nM
Kd ([1]; human CD70, one concentration (100 nM), read-out: equilibrium dissociation constant (KD)): 0.97 nM
Response ([2]; MOUSE CD70 3.13 nM): *−6.014E−03
Response ([2]; MOUSE CD70 6.25 nM): *−5.879E−03
Response ([2]; MOUSE CD70 12.5 nM): *−1.516E−03
Response ([2]; MOUSE CD70 25 nM): *−3.009E−03
Response ([2]; MOUSE CD70 50 nM): *0.0063
Response ([2]; MOUSE CD70 100 nM, dilution series): *0.0111
Response ([2]; MOUSE CD70 200 nM): *0.0012
ka ([2]; MOUSE CD70, multiple dilutions 200-3.13 nM, global fit, responses below range of quantification): 117000 M⁻¹ s⁻¹
Response ([2]; MS CD70 100 nM, one concentration): *0.0045
ka ([2]; MS CD70 100 nM, one concentration, response below range of quantification): 3250 M⁻¹ s⁻¹
cross-reactivity to mouse CD70 ([2]; multiple dilutions, Table 10): no cross-reactivity
cross-reactivity to mouse CD70 [2, 6]: no cross-reactivity
Response ([3]; RAT CD70 3.13 nM): *0.0012
Response ([3]; RAT CD70 6.25 nM): *0.0192
Response ([3]; RAT CD70 12.5 nM): *−2.762E−03
Response ([3]; RAT CD70 25 nM): *0.0069
Response ([3]; RAT CD70 50 nM): *0.0126
Response ([3]; RAT CD70 100 nM, dilution series): *0.0271
Response ([3]; RAT CD70 200 nM): *0.0054
ka ([3]; RAT CD70, multiple dilutions 200-3.13 nM, global fit, responses below range of quantification): 5.905e+06 M⁻¹ s⁻¹
Response ([3]; Rat CD70 100 nM, one concentration): *0.0125
ka ([3]; Rat CD70 100 nM, one concentration, response below range of quantification): 4641 M⁻¹ s⁻¹
cross-reactivity to rat CD70 ([3]; multiple dilutions, Table 10): no cross-reactivity
cross-reactivity to rat CD70 [3, 6]: no cross-reactivity
B1: 2E7: anti-CD70 antibody clone, VH SEQ 7 and VL SEQ 8; tested as scFv and full human IgG1/kappa (antibody, V domains shown)
VH: QVQLQESGPGLVKPSETLSLTCTVSGGSVSSDYYYWSWIRQPPGKGLEWLGYIYYSGSTNYNPSLKSRVTISVDTSKNQFSLKLRSVTTADTAVYYCARGDGDFLGVCFDYWGQGTLVTVSS
VL: EIVLTQSPATLSLSPGERATLSCRASQSVSSYLAWYQQKPGQAPRLLIFDASNRATGIPARFSGSGSGTDFTLTISSLEPEDFAVYYCQQRSNWPLTFGGGTKVEIK
modifications: Synthetic 2E7 VH amino acid sequence; Synthetic 2E7 VL amino acid sequence
notes: tested as scFv and full human IgG1/kappa
hydrophobicity compared with the parent antibody 69A7 ([4]; HIC): slightly more hydrophobic than the parent antibody 69A7
Retention time ([4]; hydrophobicity by HIC): 10.19 min
internalization, time course (Raji cells): rapid internalization
